Source: patent US20030171276A1, “Preventives and remedies for chronic hepatitis” (priority 1999, published 2003)

Legend:
HCV = conditions: cited from earlier work
[1] = system: recombinant E2 protein binding to CD81 expressed in Jurkat cells; experiment: Inhibition of binding of recombinant E2 protein to Jurkat cells (FACScan); assay type: cell-based, HCV; conditions: 1 μg recombinant E2 protein preincubated with 10 μL of 1 mg/mL solution, room temperature 1 hour; FIG. 14
Protocol: An oligopeptide capable of binding to HCV E2 antigen is reacted with the HCV E2 antigen to study whether or not binding of CD81 expressed in Jurkat cells purchased from DAINIPPON PHARMACEUTICAL CO., LTD. to the HCV E2 antigen is inhibited. By the study, whether or not the selected oligopeptide inhibits adhesion of the HCV E2 antigen to CD81-positive cells can be estimated. The inhibitory activity for adhesion of CD81 to the IICV E2 antigen was assayed in accordance with the literature. The concrete description will be given hereinbelow.
The Jurkat cells were prepared in the same manner as in item (1), and suspended in WB so as to have a concentration of 4×10^6 cells/mL, to give a Jurkat cell suspension. […]
Hereinafter, in the same manner as in the item (1) above, the resulting product was reacted with an FITC-labeled anti-mouse IgG1 antibody, and thereafter the reaction mixture was suspended in 0.2 mL of a 10% neutral buffered formalin solution. As to the resulting product, E2 protein bound to Jurkat cells was analyzed by using FACScan.
One microgram of the recombinant E2 protein, and 10 μL of the TAPA148, bLF or bLF443 solution obtained in item (4) above were added to a 6 mm rounded-bottom tube and, and WB was then added thereto, to give 50 μL of a mixture. […] As to the resulting suspension, E2 protein bound to Jurkat cells was analyzed by using FACScan.

B1: lactoferrin: lactoferrin contained in breast milk (protein, UniProt P02788 20-710, looked up)
Lactotransferrin: GRRRSVQWCAVSQPEATKCFQWQRNMRKVRGPPVSCIKRDSPIQCIQAIAENRADAVTLDGGFIYEAGLAPYKLRPVAAEVYGTERQPRTHYYAVAVVKKGGSFQLNELQGLKSCHTGLRRTAGWNVPIGTLRPFLNWTGPPEPIEAAVARFFSASCVPGADKGQFPNLCRLCAGTGENKCAFSSQEPYFSYSGAFKCLRDGAGDVAFIRESTVFEDLSDEAERDEYELLCPDNTRKPVDKFKDCHLARVPSHAVVARSVNGKEDAIWNLLRQAQEKFGKDKSPKFQLFGSPSGQKDLLFKDSAIGFSRVPPRIDSGLYLGSGYFTAIQNLRKSEEEVAARRARVVWCAVGEQELRKCNQWSGLSEGSVTCSSASTTEDCIALVLKGEADAMSLDGGYVYTAGKCGLVPVLAENYKSQQSSDPDPNCVDRPVEGYLAVAVVRRSDTSLTWNSVKGKKSCHTAVDRTAGWNIPMGLLFNQTGSCKFDEYFSQSCAPGSDPRSNLCALCIGDEQGENKCVPNSNERYYGYTGAFRCLAENAGDVAFVKDVTVLQNTDGNNNEAWAKDLKLADFALLCLDGKRKPVTEARSCHLAMAPNHAVVSRMDKVERLKQVLLHQQAKFGRNGSDCPDKFCLFQSETKNLLFNDNTECLARLHGKTTYEKYLGPQYVAGITNLKKCSTSPLLEACEFLRK
- amount of virus in blood (HCV): reduces an amount of virus in blood
- binding to HCV (HCV; lactoferrin contained in breast milk): binds to HCV

B2: bLF: bovine lactoferrin protein (SERVA Electrophoresis GmbH) (protein, UniProt P24627 20-708, looked up)
Lactotransferrin: APRKNVRWCTISQPEWFKCRRWQWRMKKLGAPSITCVRRAFALECIRAIAEKKADAVTLDGGMVFEAGRDPYKLRPVAAEIYGTKESPQTHYYAVAVVKKGSNFQLDQLQGRKSCHTGLGRSAGWIIPMGILRPYLSWTESLEPLQGAVAKFFSASCVPCIDRQAYPNLCQLCKGEGENQCACSSREPYFGYSGAFKCLQDGAGDVAFVKETTVFENLPEKADRDQYELLCLNNSRAPVDAFKECHLAQVPSHAVVARSVDGKEDLIWKLLSKAQEKFGKNKSRSFQLFGSPPGQRDLLFKDSALGFLRIPSKVDSALYLGSRYLTTLKNLRETAEEVKARYTRVVWCAVGPEEQKKCQQWSQQSGQNVTCATASTTDDCIVLVLKGEADALNLDGGYIYTAGKCGLVPVLAENRKSSKHSSLDCVLRPTEGYLAVAVVKKANEGLTWNSLKDKKSCHTAVDRTAGWNIPMGLIVNQTGSCAFDEFFSQSCAPGADPKSRLCALCAGDDQGLDKCVPNSKEKYYGYTGAFRCLAEDVGDVAFVKNDTVWENTNGESTADWAKNLNREDFRLLCLDGTRKPVTEAQSCHLAVAPNHAVVSRSDRAAHVKQVLLHQQALFGKNGKNCPDKFCLFKSETKNLLFNDNTECLAKLGGRPTYEEYLGTEYVTAIANLKKCSTSPLLEACAFLTR
- inhibitory action of binding of E2 protein to Jurkat cells [1]: inhibitory action of binding of the E2 protein
